Assay results as given in patent US20020168706A1.

Target: purified RecBCD protein (Plasmid-Safe ExoV, Epicentre) (E. coli) (UniProt P08394)
Test: cell-based or functional assay

Sequence of UniProt P08394 (P08394 2-1180 limits assumed, chain 1 of 3): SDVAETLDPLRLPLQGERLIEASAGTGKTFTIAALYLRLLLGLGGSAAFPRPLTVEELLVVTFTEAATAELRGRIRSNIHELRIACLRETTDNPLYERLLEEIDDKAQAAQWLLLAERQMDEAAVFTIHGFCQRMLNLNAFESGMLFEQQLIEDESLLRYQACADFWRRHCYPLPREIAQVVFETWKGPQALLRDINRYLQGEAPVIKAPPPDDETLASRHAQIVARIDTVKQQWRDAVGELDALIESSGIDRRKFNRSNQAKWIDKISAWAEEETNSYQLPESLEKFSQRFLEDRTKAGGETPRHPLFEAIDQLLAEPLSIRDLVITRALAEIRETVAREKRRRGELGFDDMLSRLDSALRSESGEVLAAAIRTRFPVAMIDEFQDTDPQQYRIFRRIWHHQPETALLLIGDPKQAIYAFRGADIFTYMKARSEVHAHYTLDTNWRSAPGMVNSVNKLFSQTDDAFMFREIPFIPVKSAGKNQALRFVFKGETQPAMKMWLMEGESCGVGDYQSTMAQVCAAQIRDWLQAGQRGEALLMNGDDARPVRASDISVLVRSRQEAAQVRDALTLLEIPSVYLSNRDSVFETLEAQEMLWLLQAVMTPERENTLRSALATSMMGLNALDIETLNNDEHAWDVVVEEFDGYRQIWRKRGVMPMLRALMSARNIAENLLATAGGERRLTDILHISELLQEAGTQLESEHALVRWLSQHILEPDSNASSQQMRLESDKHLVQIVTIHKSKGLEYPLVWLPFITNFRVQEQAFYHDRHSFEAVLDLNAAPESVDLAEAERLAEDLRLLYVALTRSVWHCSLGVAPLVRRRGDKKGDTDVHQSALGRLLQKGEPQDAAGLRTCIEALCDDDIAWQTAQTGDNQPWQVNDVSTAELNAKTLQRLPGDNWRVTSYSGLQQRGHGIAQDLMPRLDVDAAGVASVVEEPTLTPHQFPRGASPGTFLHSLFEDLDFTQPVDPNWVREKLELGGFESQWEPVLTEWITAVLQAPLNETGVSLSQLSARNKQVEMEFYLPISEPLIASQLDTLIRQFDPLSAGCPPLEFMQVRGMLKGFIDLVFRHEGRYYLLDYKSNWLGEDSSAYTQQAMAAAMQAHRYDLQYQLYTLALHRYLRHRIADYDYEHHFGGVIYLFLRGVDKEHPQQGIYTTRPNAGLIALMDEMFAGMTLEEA
Sequence of UniProt P08394 (P07648 whole entry, chain 2 of 3, further chain): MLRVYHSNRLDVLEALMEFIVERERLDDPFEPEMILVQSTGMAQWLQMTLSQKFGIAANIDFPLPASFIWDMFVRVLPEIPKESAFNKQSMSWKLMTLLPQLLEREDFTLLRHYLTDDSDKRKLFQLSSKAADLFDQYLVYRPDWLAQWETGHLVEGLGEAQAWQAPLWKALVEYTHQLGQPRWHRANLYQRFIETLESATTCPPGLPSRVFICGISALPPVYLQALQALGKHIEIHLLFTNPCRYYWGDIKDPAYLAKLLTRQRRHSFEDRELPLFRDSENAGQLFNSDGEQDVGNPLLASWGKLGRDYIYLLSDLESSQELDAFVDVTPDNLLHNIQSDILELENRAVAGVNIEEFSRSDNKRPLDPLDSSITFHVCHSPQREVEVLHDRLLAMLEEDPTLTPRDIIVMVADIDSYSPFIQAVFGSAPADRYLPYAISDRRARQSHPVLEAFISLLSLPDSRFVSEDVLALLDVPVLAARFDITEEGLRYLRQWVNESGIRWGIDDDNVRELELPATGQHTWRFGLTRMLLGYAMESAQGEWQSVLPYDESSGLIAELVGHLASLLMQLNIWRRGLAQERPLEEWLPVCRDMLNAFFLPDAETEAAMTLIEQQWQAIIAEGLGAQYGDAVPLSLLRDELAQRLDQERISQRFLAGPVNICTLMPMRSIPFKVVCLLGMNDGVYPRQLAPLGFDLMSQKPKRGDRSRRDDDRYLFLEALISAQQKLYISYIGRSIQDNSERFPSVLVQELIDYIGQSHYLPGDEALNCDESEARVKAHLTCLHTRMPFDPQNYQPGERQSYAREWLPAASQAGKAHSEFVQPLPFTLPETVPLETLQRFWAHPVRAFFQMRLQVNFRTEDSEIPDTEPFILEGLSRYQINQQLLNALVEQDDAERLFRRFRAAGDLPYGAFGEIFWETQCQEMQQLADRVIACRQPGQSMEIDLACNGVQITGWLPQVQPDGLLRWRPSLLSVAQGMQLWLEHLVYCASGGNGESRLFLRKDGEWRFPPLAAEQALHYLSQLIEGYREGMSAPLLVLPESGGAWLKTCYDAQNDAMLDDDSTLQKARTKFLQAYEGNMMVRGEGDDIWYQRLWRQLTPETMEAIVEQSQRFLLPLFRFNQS
Sequence of UniProt P08394 (P04993 whole entry, chain 3 of 3, further chain): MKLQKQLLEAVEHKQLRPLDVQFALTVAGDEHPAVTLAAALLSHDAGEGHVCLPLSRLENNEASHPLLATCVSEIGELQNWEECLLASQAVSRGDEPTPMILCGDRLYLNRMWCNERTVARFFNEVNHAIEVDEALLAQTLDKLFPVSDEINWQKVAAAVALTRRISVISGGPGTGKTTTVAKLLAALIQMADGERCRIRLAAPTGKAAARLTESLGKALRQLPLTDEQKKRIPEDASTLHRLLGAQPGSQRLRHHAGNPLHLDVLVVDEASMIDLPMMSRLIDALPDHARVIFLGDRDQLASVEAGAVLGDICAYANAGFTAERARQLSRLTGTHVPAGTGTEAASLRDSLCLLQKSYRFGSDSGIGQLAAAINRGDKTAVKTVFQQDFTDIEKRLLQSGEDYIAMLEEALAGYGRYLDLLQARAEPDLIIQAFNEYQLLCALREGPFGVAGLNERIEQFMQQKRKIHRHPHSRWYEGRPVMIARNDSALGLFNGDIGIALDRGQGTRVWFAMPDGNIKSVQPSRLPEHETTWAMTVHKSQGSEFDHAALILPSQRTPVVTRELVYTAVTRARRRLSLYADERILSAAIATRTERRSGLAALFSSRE

Substance: GamS (short form of the bacteriophage lambda Gam protein, expressed from pLDE136, partially purified MonoQ pool) (from UniProt P03702 1-98)
- specific activity of GamS in the Gam-mediated RecBCD inhibition assay: 160 to 200 U/µg
